T1: Recombinant human IL-23 (human, UniProt P29460 23-328)
T1 construct: also called hu IL23
T1 sequence 1: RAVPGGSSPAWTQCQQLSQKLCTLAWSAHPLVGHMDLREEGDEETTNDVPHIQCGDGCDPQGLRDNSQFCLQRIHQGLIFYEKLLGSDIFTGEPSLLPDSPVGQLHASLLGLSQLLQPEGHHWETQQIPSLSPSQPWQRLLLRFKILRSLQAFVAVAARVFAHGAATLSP
T1 sequence 2: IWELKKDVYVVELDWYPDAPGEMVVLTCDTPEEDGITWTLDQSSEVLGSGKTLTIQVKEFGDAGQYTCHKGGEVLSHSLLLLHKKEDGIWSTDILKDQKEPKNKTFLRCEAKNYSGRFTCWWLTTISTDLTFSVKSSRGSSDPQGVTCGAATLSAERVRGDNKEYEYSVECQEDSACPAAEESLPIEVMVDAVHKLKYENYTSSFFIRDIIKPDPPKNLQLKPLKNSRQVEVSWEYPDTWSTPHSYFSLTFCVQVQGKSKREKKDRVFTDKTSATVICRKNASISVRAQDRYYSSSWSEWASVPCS

T2: Linked human IL-23 (Boehringer Ingelheim Pharmaceuticals, Inc.) (human, UniProt P29460 23-328)
T2 sequence 1: T1 sequence 1
T2 sequence 2: T1 sequence 2

B1: Control Antibody 3 (anti-BAFF monoclonal antibody) (BAFF (3)) (antibody, V domains shown)
VH: QVQLQQWGAGLLKPSETLSLTCAVYGGSFSGYYWSWIRQPPGKGLEWIGEINHSGSTNYNPSLKSRVTISVDTSKNQFSLKLSSVTAADTAVYYCARGYYDILTGYYYYFDYWGQGTLVTVSS
VL: EIVLTQSPATLSLSPGERATLSCRASQSVSRYLAWYQQKPGQAPRLLIYDASNRATGIPARFSGSGSGTDSTLTISSLEPEDFAVYYCQQRSNWPRTFGQGTKVEIK
B2: Compound B (bispecific antibody, human IgG4 S228P, kappa)
chain 1: DIQMTQSPSSLSASVGDRVTITCKASRDVAIAVAWYQQKPGKVPKLLIYWASTRHTGVPSRFSGSGSRTDFTLTISSLQPEDVADYFCHQYSSYPFTFGSGTKLEIKGGGSGGGGQVQLVQSGAEVKKPGASVKVSCKASGYSFSTFFIHWVRQAPGQGLEWIGRIDPNSGATKYNEKFESRVTMTRDTSISTAYMELSRLRSDDTAVYYCARGEDLLIRTDALDYWGQGTSVTVSSLGGGSGASTKGPSVFPLAPCSRSTSESTAALGCLVKDYFPEPVTVSWNSGALTSGVHTFPAVLQSSGLYSLSSVVTVPSSSLGTKTYTCNVDHKPSNTKVDKRVESKYGPPCPPCPAPEFLGGPSVFLFPPKPKDTLYITREPEVTCVVVDVSQEDPEVQFNWYVDGVEVHNAKTKPREEQFNSTYRVVSVLTVLHQDWLNGKEYKCKVSNKGLPSSIEKTISKAKGQPREPQVYTLPPSQEEMTKNQVSLTCLVKGFYPSDIAVEWESNGQPENNYKTTPPVLDSDGSFFLYSRLTVDKSRWQEGNVFSCSVMHEALHNHYTQKSLSLSLG
chain 2: DIQMTQSPSSLSASVGDRVSITCKASQNAGIDVAWFQQKPGKAPKLLIYSKSNRYTGVPSRFSGSGSGTDFTLTISSLQPEDFATYYCLQYRSYPRTFGQGTKLEIKGGGSGGGGQVQLVQSGAEVKKPGSSVKVSCKASGYTFTDQTIHWMRQAPGQGLEWIGYIYPRDDSPKYNENFKGKVTITADKSTSTAYMELSSLRSEDTAVYYCAIPDRSGYAWFIYWGQGTLVTVSSLGGGSGRTVAAPSVFIFPPSDEQLKSGTASVVCLLNNFYPREAKVQWKVDNALQSGNSQESVTEQDSKDSTYSLSSTLTLSKADYEKHKVYACEVTHQGLSSPVTKSFNRGEC
notes: Large chain: IL23A(1) VL - BAFF(7) VH - LGGGSG - IgG4-Pro-YTE constant domain; small chain: BAFF(7) VL - IL23A(1) VH - LGGGSG - CL; Tetravalent format

Key:
[1] = biological target: Recombinant cynomolgus BAFF trimer (Boehringer Ingelheim Pharmaceuticals, Inc.) (cynomolgus, UniProt A0A2K5V2X4 134-285); experiment: cell-based or functional assay
human BAFF [2] = biological target: T3, human BAFF (human, UniProt Q9Y275 134-285, limits assumed); experiment: cell-based or functional assay
[3] = biological target: Recombinant human BAFF 60mer (Boehringer Ingelheim Pharmaceuticals, Inc.) (human, UniProt Q9Y275 134-285, limits assumed); experiment: cell-based or functional assay
[4] = biological target: T4, Recombinant human BAFF trimer (Boehringer Ingelheim Pharmaceuticals, Inc.) (human, UniProt Q9Y275 134-285, limits assumed); experiment: cell-based or functional assay
[5] = biological target: membrane-bound human BAFF on fixed CHO-K1 cells (human, UniProt Q9Y275 1-285); experiment: cell-based or functional assay
[6] = biological target: T4, Recombinant human BAFF trimer …; experiment: cell-based or functional assay; remark: listed apart in the source
Recombinant human IL-23 [7] = biological target: T1, Recombinant human IL-23; experiment: BLI (Octet RED96, streptavidin tips), compound incubated 48 h at 37 C in whole blood vs kinetic buffer
Description: (§1) A whole blood interference assay was developed on an Octet RED96 to detect the effects of non-specific binding or off-target binding for compounds in the presence of whole blood (WB). The compound solutions in whole blood and 1× kinetic running buffer (1×kb) were incubated at a temperature of 37° C. for 48 hours. Kinetic measurements for the incubated compound samples were performed with an Octet RED96 equipped with streptavidin (SA) biosensor tips (ForteBio, Menlo Park, Calif.) at 27° C. The ratio of the on-rates/binding signals in buffer and whole blood were reported. A ratio <2 was considered to show no interference.

human BAFF [8] = biological target: T3, human BAFF; experiment: as above
Description: as §1

Recombinant human IL-23 [9] = biological target: T1, Recombinant human IL-23; experiment: cell-based or functional assay
cynomolgus IL-23 [10] = biological target: T5, cynomolgus IL-23 (cynomolgus, UniProt H6WS56 20-189); experiment: cell-based or functional assay
[11] = biological target: T2, Linked human IL-23 (Boehringer …); experiment: SPR (ProteOn XPR36), compound captured on goat anti-human IgG Fc, antigen injected
Description: (§2) SPR experiments were performed on a ProteOn XPR36 instrument (Bio Rad). A GLM chip was preconditioned with sequential injections of 60 sec of 0.5% SDS, 50 mM NaOH, and 100 mM HCl at a flow rate of 30 μl/min both vertical and horizontal directions.
(§3) The preconditioned GLM chip was then activated by an injection of EDC (76.7 mg/ml) and sulfo-NHS (21.7 mg/ml) mixture with ratio of 1:1 in 6 horizontal channels. Goat-anti-human IgG (GAHA) Fc gamma (Invitrogen) at a concentration of 30 μg/ml in 10 mM, pH 5.0 sodium acetate buffer was immobilized to 8,000 resonance units on the activated GLM chip in 6 horizontal channels. The chip was finally deactivated with 1 M ethanolamine HCl in 6 horizontal channels. The prepared GAHA chip was rotated to vertical direction to capture test compounds, over 5 vertical channels and the last channel was used as a column reference. The captured chip was then rotated again to the horizontal direction for binding. […] The dissociation was allowed for 2 hour. The GAHA surface was regenerated using short pulse injection (18 seconds) of 0.85% phosphoric acid (Bio Rad) at a flow rate of 100 μl/min both horizontal and vertical directions after 10 min association and 2 hr dissociation. The regenerated GAHA was ready for another binding cycle.

human BAFF [12] = biological target: T3, human BAFF; experiment: as above
Description: as §2, §3

cynomolgus BAFF = biological target: T6, cynomolgus BAFF (cynomolgus, UniProt A0A2K5V2X4 134-285); experiment: as above
T6 construct: construct not described
Description: as §2, §3

cynomolgus IL-23 [13] = biological target: T5, cynomolgus IL-23; experiment: as above
Description: as §2, §3

Recombinant human IL-23 [14] = biological target: T1, Recombinant human IL-23; experiment: cell-based or functional assay; remark: listed apart in the source

Binder	IC50 Geomean, NFkB luciferase reporter, human BAFFR-CHO cells [1] [nM]	IC90 Geomean, NFkB luciferase reporter, human BAFFR-CHO cells [1] [nM]	IC50, 3H-thymidine incorporation, primary human B cells stimulated with anti-IgM and hBAFF (human BAFF [2]) [nM]	IC50, NFkB luciferase reporter, human BAFFR-CHO cells [3] [nM]	IC90, NFkB luciferase reporter, human BAFFR-CHO cells [3] [nM]	IC50, NFkB luciferase reporter, human BAFFR-CHO cells [4] [nM]	IC90, NFkB luciferase reporter, human BAFFR-CHO cells [4] [nM]	IC50, NFkB luciferase reporter, human BAFFR-CHO cells stimulated with fixed human BAFF CHO-K1 cells [5] [nM]	IC90, NFkB luciferase reporter, human BAFFR-CHO cells stimulated with fixed human BAFF CHO-K1 cells [5] [nM]	IC50 Geomean, NFkB luciferase reporter, human TACI-CHO cells [6] [nM]	IC90 Geomean, NFkB luciferase reporter, human TACI-CHO cells [6] [nM]	other results
B1	0.257	0.588	0.0873	0.015	0.038	0.07	0.417	0.25	2.92	0.241	0.618	–
B2	0.132	0.295	0.0337	0.006	0.017	0.039	0.256	0.125	1.14	0.159	0.51	Ratio of binding signal in WB/kinetic buffer (Recombinant human IL-23 [7]): 1.5; Ratio of binding signal in WB/kinetic buffer (human BAFF [8]): 1.2; IC50, IL-23-induced mouse IL-17 release from mouse splenocytes (Recombinant human IL-23 [9]): 0.202 nM; IC90, IL-23-induced mouse IL-17 release from mouse splenocytes (Recombinant human IL-23 [9]): 1.36 nM; IC50, IL-23-induced mouse IL-17 release from mouse splenocytes (cynomolgus IL-23 [10]): 0.2 nM; IC90, IL-23-induced mouse IL-17 release from mouse splenocytes (cynomolgus IL-23 [10]): 1.48 nM; Kd [11]: < 0.015 nM; Kd (human BAFF [12]): < 0.015 nM; Kd (cynomolgus BAFF): < 0.015 nM; Kd (cynomolgus IL-23 [13]): < 0.015 nM; IC50, STAT3-luciferase reporter in DB lymphoblast B cells (Recombinant human IL-23 [14]): 0.161 nM; IC90, STAT3-luciferase reporter in DB lymphoblast B cells (Recombinant human IL-23 [14]): 1.1 nM

Source: patent publication US20210107998A1 (Boehringer Ingelheim, published 2021)
